Assay results published in IntAct's records for PubMed 26749241.

B1: Succinate dehydrogenase [ubiquinone] iron-sulfur subunit, mitochondrial (Homo sapiens), P21912 (parent)
chain: MAAVVALSLRRRLPATTLGGACLQASRGAQTAAATAPRIKKFAIYRWDPDKAGDKPHMQTYEVDLNKCGPMVLDALIKIKNEVDSTLTFRRSCREGICGSCAMNINGGNTLACTRRIDTNLNKVSKIYPLPHMYVIKDLVPDLSNFYAQYKSIEPYLKKKDESQEGKQQYLQSIEEREKLDGLYECILCACCSTSCPSYWWNGDKYLGPAVLMQAYRWMIDSRDDFTEERLAKLQDPFSLYRCHTIMNCTRTCPKGLNPGKAIAEIKKMMATYKEKKASV
partner: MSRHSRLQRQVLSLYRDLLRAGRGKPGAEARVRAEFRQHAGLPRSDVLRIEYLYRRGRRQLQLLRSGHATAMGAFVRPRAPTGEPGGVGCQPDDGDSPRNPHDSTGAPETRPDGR

Variants of: B1
Settings: with sdhf1_human SDHAF1, A6NFY7

Variant	effect of a mutation on the interaction
MAAVVALSLRRRLPATTLGGACLQASRGAQTAAATAPRIKKFAIYRWDPDKAGDKPHMQTYEVDLNKCGPMVLDALIKIKNEVDSTLTFRRSCREGICGSCAMNINGGNTLACTRRIDTNLNKVSKIYPLPHMYVIKDLVPDLSNFYAQYKSIEPYLKKKDESQEGKQQYLQSIEEREKLDGLYECILCACCSTSCPAAAAAGDKYLGPAVLMQAYRWMIDSRDDFTEERLAKLQDPFSLYRCHTIMNCTRTCPKGLNPGKAIAEIKKMMATYKEKKASV [S198A;Y199A;W200A;W201A;N202A]	disrupting interaction strength
MAAVVALSLRRRLPATTLGGACLQASRGAQTAAATAPRIKKFAIYRWDPDKAGDKPHMQTYEVDLNKCGPMVLDALIKIKNEVDSTLTFRRSCREGICGSCAMNINGGNTLACTRRIDTNLNKVSKIYPLPHMYVIKDLVPDLSNAAAAAASAEPYLKKKDESQEGKQQYLQSIEEREKLDGLYECILCACCSTSCPSYWWNGDKYLGPAVLMQAYRWMIDSRDDFTEERLAKLQDPFSLYRCHTIMNCTRTCPKGLNPGKAIAEIKKMMATYKEKKASV [F146A;Y147A;Q149A;Y150A;K151A;I153A]	disrupting interaction strength
MAAVVALSLRRRLPATTLGGACLQASRGAQTAAATAPRIKKFAIYRWDPDKAGDKPHMQTYEVDLNKCGPMVLDALIKIKNEVDSTLTFRRSCREGICGSCAMNINGGNTLACTRRIDTNLNKVSKIYPLPHMYVIKDLVPDLSNAYAQYKSIEPYLKKKDESQEGKQQYLQSIEEREKLDGLYECILCACCSTSCPSYWWNGDKYLGPAVLMQAYRWMIDSRDDFTEERLAKLQDPFSLYRCHTIMNCTRTCPKGLNPGKAIAEIKKMMATYKEKKASV [F146A]	decreasing interaction strength
